assay: soluble on expression in E. coli; label from the status in PepcDB or PDB records

Row | Sequence | soluble on expression in E. coli
1 | MSNKDIRVVVGMSGGVDSSVTAYLLKEQGYDVIGIFMKNWDDTDENGVCTATEDYNDVIAVCNQIGIPYYAVNFEEQYWDKVFTYFLDEYKKGRTPNPDVMCNKEIKFKAFLEHALKLGADYVATGHYARIRRHDDGHVEMLRGVDNNKDQTYFLNQLSQEQLSKVMFPIGDIEKSEVRRIAEEQNLATAKKKDSTGICFIGERNFKEFLSHYLPAQSGEMLTLNGKKMGQHSGLMYYTIGQRHGLGIGGDGDPWFVVGKNLNDNVLYVEQGFHHDALYSDYLIASDYSFVNPSEIDLEKGFECTAKFRYRQKDTKVYVQRENENSIRVTFAEPVRAITPGQAVVFYNQEVCLGGATIDDVYKNEGQLSYVVLEHHHHHH | soluble
2 | EGFYRHQTQSFSFMVNNVQVVFPSSTSKPWQGLASRRQIDIPQEKVDMIKQSGFVQQASSVYAKWDANITNLKGQNLSSTVSGIDTSYFPLIQRKLQSGSRNLSPSDMKNHTRVAVLGDQIAQMGGIQIGDRLKVNGIPFLVIGITVGEDTGISFGDSRTVFIPQTTYRDLWDAKPWMVLMKPRDGMDAPSFRQNIVNFFAKQLHFDPSDKDAVELPDFSEGAAVISGILRGIQI | not soluble
3 | MSLGKHVTIGFAGPQADHGWLNAINDNAKSRAKKYGDVTLEITEGSNDTAAQIGQIETLINKKVDVLVVLPADGKALTQVGLKAMRAGIPVVNLDRIFNSPQAYRCWIGGDNYGMGLSAGRYIGEKLKDKPNARVVELAGLDNLELTKQRTQGFDAALKNYPNIRKVARQAAEFTVESGQSKMAQLLQAQSRFDALWNHDDDQGVGALRAIKQAGRDDFLMVGGAGALSAFQAIKADDGVLKATVLYPPTMAASAIDLARALGQGKGVGGLAEFEIPASLTLYSAVVDKDNVGQYMSTGFREGHHHHHH | soluble
4 | MGSDKIHHHHHHMKKGLVMEGGAMRGLYTAGVTDVLMKYGIKFDGAVGVSAGVTFGCNYKSLQPGRVLRYNLRYGSRPQFKSWRSWIKTGDLYGADFCYYTLPEVLDPFDTAAFARNPMDFWCVATDVETAQPAYHKLTTGKGRDVAWIRASASIPVFARPVKIGGHAYWDGGVSDSIPVRFLLDKDYDKAVVILTQPAGYQKEPSRLQPVIDRVLKKYPAVVARLRQRHLEYNACLAYIAKEEAAGHLFVFRPSQGIDVSAMEKDPNRLKAVYQVGVRGCQAAIGGLEGIFTRLSTKNGD | not soluble
5 | MGSDKIHHHHHHMIAQVEPFHAIAISRLAHDLEAAGQSVIHMEFGQPSTGAPAEAIALAHEVLDNEAMGYWESVPLKERIARSYAENHGVKVEREQVILTCGASPAFVMALSCLFRPGARIALARPGYVAYRNSLKAMYLEPVEMECGPAERFQVTAAAVDALDPVPDGLIVASPANPTGTIIEPGELAAIAEVCCRKGIRVISDEIYHGLSYGKAAASMLEYLPDAVIVNSFSKYFSMAGWRLGWLVVPPSLIDAARARMGSLFLTPPVLAQKAGLKAFDCRAELDGHVETYARNRAILLEALPQMGLGRIAPPDGAFYIYADASEFTDDSLALCEALLRDTGVATAPGLDFDPVNGKRFIRFSFAVSTPLIEEAVRRIGPWFAARRAVSPAQAPS | not soluble
6 | TKAVHTKHAPAAIGPYSQGIIVNNMFYSSGQIPLTPSGEMVNGDIKEQTHQVFSNLKAVLEEAGASFETVVKATVFIADMEQFAEVNEVYGQYFDTHKPARSCVEVARLPKDALVEIEVIALVK | soluble
7 | MTEYNIGAKIKKLRLAKKLTLQAVARETGFSPALISQIENNNVSPPIATLSKIAKFFDVKISLFFSEDEEEYRYEVVRRGERKVIPRVISRAGTSQGYSYESLSFRKQNKKMEPFLLTVTEKAAEENTYNHDGEEFLFVMKGTAELLLEDERVILEEGDCVYFDSSLKHRLLSRDGSEVQVLAVVTR | not soluble
8 | MGHHHHHHSHMSDWLEHSVQVEVAVPVARAWELWSDLEQMPRWMKWIDSVQVQKDDPELSRWKLASQGFEFSWLSRITRLVPQQLIQWESVDGLPNRGAIRFYDRQDHSIVRLSISYAIPGGLGPLMDKLFLGRIVEGTLKADLDRFRHYAESPR | not soluble
9 | MSLNGLNSECHFYQTDGDIVVRCAQINDAERLSQYFVDNRSHLIEWEPRREAEFFTESGWLQRLIKLNELHKMKLGYYLLILDAQNDAMLGTISFSNIIRFPFHACNVGYSLAYEAQGKGIMTRALTMACQYMFSEHNMHRIMASYIPHNKRSENVLKRVGFVLEGHAKDYLLINGKWEDHNLTSLINPNWKEEGHHHHHH | soluble
10 | MGSDKIHHHHHHMVNSEQALHQHDPAPILQLDKVSKSFGPVNVINQVSIDVRPGRVLALLGENGAGKSTLIKMMSGVYQPDGGQILVDGKPTTLPDTKTAESFGIATIHQELNLVPTMTVAENVMLGRTPRKWGLVNFKHLRRQAQAALDLIGVDVDLNAQVGSLGIARQQMVEIAKALSMNARILILDEPTAALTGREIDQLFKVVDQLKEKGVAMVFISHHLDEIARIGDTVSVLRDGQFIAELPADTDEDELVRLMVGRSIENQYPRSAPEIGQPLLEVKNLNAEGRFTDISLTVRAGEVVGLAGLVGAGRTEVVRSIAGVDKVDSGEVIVAGKKLRGGDISEAIKNGIGHIPEDRKAQGLVLGSSVEDNLGLATLASTARAGLVDRSGQHKRAAEVAEKLRIRMASLKQPISDLSGGNQQKAVFGRWVLAGSNVLLLDEPTRGVDVGAKVEIYNIINEMTEKGGAVLMVSSELPEVLGMADRILVMSGGRIAGELPAKGTTQDDVMALAVSQVDDSITEEAAAEIENTKEDR | not soluble
11 | MSLDAMAKILLVEDSATQAVEMTMLLQAANHEVVHVANGQLGLSHLKEQAPDLVITDLEMPEINGLQLVESMRANFSHIPSILVTSHGSEELAAEALRRGAAGYVPKTRMSDLLNDTIVDVLGVIRSDASYAKLISTLKKNVFVFDLPSDPELISPLVGLLMQVSAGMELLPSIEMVRLGVAVEHSLTNAMLHGNLEIPRDKQPSHGQLAREGMINDAMKERLSQEPYKSRVTHVEATASEHAIRIVITDQGPGFDTSNVPQAGELDASSLAASADGVGQADKQGLLLIASFVDQMWFNDEGNQITLVKRCGAEGHHHHHH | not soluble
12 | MAHHHHHHMSSVKITLFQGKFRLDRLLGKGGFGEVYAGVQVSTGEPVAVKLERNKGRCFLFHEARVMQDIQNSMPGRTTPGIPELKYFGQEGDFRILIMSLLGPSLEDLHAKLGRFSLKTTVMLADEMLSRLEFIHSVGYIHRDLKPDNYLLGVGRNVRHLYLIDLGLSVRYRSTNGEHREMATGKSFVGTSRYASLRTHKGFSQSRRDDMEQLSYILIYLYRGHLPWSGLRMKDREAKEKAIGEIKQKLTTAQICSKCPSQFEDLLNYSRKLEFAESPQYEMCRILIASVLDTIGPNVKHDFQYDWVNVRKRDNSPPPPPPCIVTHERRATENKINLKKGNENGEKDAATIGSKIFCFFPGLSSSASQEMVLVNEK | not soluble
13 | MASLAAVVRALLRRESQRATGYALREWTMLTARHLPYLQGQLTLGRIAAVGHLQRSTLGRSEWHTSSAPLFGEGRGRWHWGLSTSDVVDGSDHEHHSTETGGRELPSFKTGELGSDVDGDRAALEAWLAQIRDETSGWPELSLDALRDELDEELEGDDDDNDDDDDETYENEELLKALQEAVNRHRTPVVALVSGRVVHLRRTAAPKRSPRAGRVPRNEPQTTSRDTTKADANDNECT | soluble
14 | MGSDKIHHHHHHMKFPRKGIPQEEVMRELEKYTSKDLSFSSGKILGSMCTLPHELAKEVFCMYMDRNLGDPGLHPGTKKIEEEVIEMLSDLLHLERGYGHIVSGGTEANILAVRAFRNLADVENPELILPKSAHFSFIKAGEMLGVKLIWADLNPDYTVDVKDVEAKISENTIGIVGIAGTTGLGVVDDIPALSDLARDYGIPLHVDAAFGGFVIPFAKELGYDLPDFDFKLKGVQSITIDPHKMGMAPIPAGGIVFRHKKYLRAISVLAPYLAGGKIWQATITGTRPGASVLAVWALIKHLGFEGYMEIVDRAMKLSRWFAEEIKKTPGAWLVREPMLNIVSFKTKNLRRVERELKSRGWGISAHRGYIRIVSHASCDGGHD | not soluble
15 | MAHHHHHHMCAKESCRAVNQGIRKECESCGTEKPQLLGWKCEGCSTINHAGVRKCKKCADASDKSKEFWMCAVCHENNRVDEIEDNSRCGFCGYDMAPHSVAEEEILRRATEKTVMLQQQQEHFDSVSYTEADEQFTNPLEGAEALDPSLRAIHPGSEAPITGRVLKLPAVAPFVAGGVPETRHSPLHQRRKVHPALQTVLEGATAPEGPPGFDWMCRDSSCGHINPGDEESCLKCGSHITPAEWEVPVMRVLEPPGTLALLLLQKPHSGLLDLQCVSGDDEHL | not soluble
16 | MSSNDVLAQIAGLAKAAAELENDFSTDSEMQQDSEICDEVDAELFDDFETKPSSRKESSGTSRRTRMAHRELQGLQFANPGDEMSRFLPDSVDIISTNRSKRVAAEKQADLRDEPLHHDKTGKLSVTAKGQTLFFDLCDCLVVECDGCHWPCKQCKSRKCLIGCRQNRKEMVIRVEEMYTVTEAPGPVVNINPYFPGQIKD | not soluble
17 | MEHSLPPYRLRRSPRAKYLRLLIRPDGIEVVVPTGLSDATVLAFVRQHGGWAQARLEELLARLAKLRQGQAERFPAEGGSVPLEGRETPLFIEETGGSRIRVSLEDQGLRLILPRTCGADRDRYVRDALFGWMKRRLPGRVTELIERHAPLHGLYPRQLRIKSMRTRWGSCGPANDINLNWLLGLAPLSVLEYVVVHELCHIRHRNHSRDFWELVAAHLPDWRQERQWLKAHGGGLIQRFDPAFRLEHHHHHH | soluble
18 | MVADIELDAAQSIAAVLFDKDGTLLGYDASWGPVNRELASIAAKGDAALADRLLAACGMDPVTGHVVPDSLLAAGNTAEIAAGLVAAGSSCDVVELTQRLDRLFTEAADKSVPVTDLKAFFARLKARGYKLGIASSDNENSIRQTAIRFGFEEDIDFVAGYDSGYGTKPQPGMVLGFCEAIGFPPERVAVVGDNNHDLHMAKNAGAGLRIAVLTGTGSRESLGADAHYCFDDITGLEALLPERAV | not soluble
19 | MASSNLIKQLQERGLVAQVTDEEALAERLAQGPIALYCGFDPTADSLHLGHLVPLLCLKRFQQAGHKPVALVGGATGLIGDPSFKAAERKLNTEETVQEWVDKIRKQVAPFLDFDCGENSAIAANNYDWFGNMNVLTFLRDIGKHFSVNQMINKEAVKQRLNREDQGISFTEFSYNLLQGYDFACLNKQYGVVLQIGGSDQWGNITSGIDLTRRLHQNQVFGLTVPLITKADGTKFGKTEGGAVWLDPKKTSPYKFYQFWINTADADVYRFLKFFTFMSIEEINALEEEDKNSGKAPRAQYVLAEQVTRLVHGEEGLQAAKRITECLFSGSLSALSEADFEQLAQDGVPMVEMEKGADLMQALVDSELQPSRGQARKTIASNAITINGEKQSDPEYFFKEEDRLFGRFTLLRRGKKNYCLICWK | soluble
20 | MAKDIEISASESKFILEALRQNYRLDGRSFDQFRDVEITFGKEFGDVSVKMGNTKVHCRISCQIAQPYEDRPFEGLFVISTEISPMAGSQFENGNITGEDEVLCSRIIEKSVRRSGALDVEGLCIVAGSKCWAVRADVHFLDCDGGFIDASCIAVMAGLMHFKKPDITVHGEQIIVHPVNEREPVPLGILHIPICVTFSFFNPQDTEENIKGETNSEISIIDATLKEELLRDGVLTVTLNKNREVVQVSKAGGLPMDALTLMKCCHEAYSIIEKITDQILQLLKEDSEKRNKYAAMLTSENAREI | soluble
21 | MEEPSELGASKEKPIELNEDDESSDGENSVIILDSDTEPEDGAGGEEDEDNGEDSEEEDEEDSDEEESEDDSDSSVDTESVNSVWSNVDEENGEEITTEAAEAKIIKKFEKAIFSIADNDSETGRRILEKLLNDAIIATYNQENPDFELLDEPPRLAKMLQVFIASHRNLAKLCEKEVENADEKEKEQLKSEEIQHLCQVLAYEPNSSDIWLDVALKSIEFGDLNFSKYAFKRCETLKESLESHATLLYLTCDYNESLMIMKQFQEQNDVLNDKLKYLKHKIRSTNQYYKLSCDRIFEEDEVYADVQSVEKRKIQDFDERIEALRSRVVGKIEQRDVDFRDEEEKCSVIPIRIEADQE | not soluble
